Laboratory results taken from the RNAGym collection of RNA variant scans (doi:10.7554/elife.80360).

B1: Hairpin Ribozyme (parent)
chain: GUCCUCUUUCACGUGCGCGUGAAAGAGAGAAGUGAACCAGAGAAACACACGUUGUGGUAUAUUACCUGGUA

Variants of: B1
Test: self-cleavage, relative activity (ratio to wild type); higher = more cleavage; co-transcriptional

Variant	self-cleavage
GUCCUCCUUCACGUGCGCGUGAAAGAGAGAAGUGAACCAGAGAAACACACGUUGUGGGAUAUUACCUGGUA [U7C U58G]	0.815
GUCCUCCUUCACGUGCGCGUGAAAGAGAGAAGUGAACCAGAGAAACACACGUUGUGGUAAAUUACCUGGUA [U7C U60A]	0.737
GUCCUCCUUCACGUGCGCGUGAAAGAGAGAAGUGAACCAGAGAAACACACGUUGUGGUAGAUUACCUGGUA [U7C U60G]	0.621
GUCCUCCUUCACGUGCGCGUGAAAGAGAGAAGUGAACCAGAGAAACACACGUUGUGGUAUAGUACCUGGUA [U7C U62G]	0.179
GUCCUCCUUCACGUGCGCGUGAAAGAGAGAAGUGAACCAGAGAAACACACGUUGUGGUAUAUAACCUGGUA [U7C U63A]	0.19
GUCCUCCUUCACGUGCGCGUGAAAGAGAGAAGUGAACCAGAGAAACACACGUUGUGGUAUAUGACCUGGUA [U7C U63G]	0.161
GUCCUCCUUCACGUGCGCGUGAAAGAGAGAAGUGAACCAGAGAAACACACGUUGUGGUAUAUUACCGGGUA [U7C U67G]	0.171
GUCCUCCUUCACGUGCGCGUGAAAGAGAGAAGUGAACCAGAGAAACACACGUUGUGGUAUAUUACCUGGAA [U7C U70A]	1.02
GUCCUCCUUCACGUGCGCGUGAAAGAGAGAAGUGAACCAGAGAAACACACGUUGUGGUAUAUUACCUGGCA [U7C U70C]	1.04
GUCCUCGUUCACGUGCGCGUGAAAGAGAGAAGUGAACCAGAGAAACACACGUUGUGGUAUAUUACCUGGUA [U7G]	0.875
GUCCUCGUUCACGUGCGCGUGCAAGAGAGAAGUGAACCAGAGAAACACACGUUGUGGUAUAUUACCUGGUA [U7G A22C]	0.515
GUCCUCGUUCACGUGCGCGUGGAAGAGAGAAGUGAACCAGAGAAACACACGUUGUGGUAUAUUACCUGGUA [U7G A22G]	0.908
GUCCUCGUUCACGUGCGCGUGAUAGAGAGAAGUGAACCAGAGAAACACACGUUGUGGUAUAUUACCUGGUA [U7G A23U]	0.883
GUCCUCGUUCACGUGCGCGUGAAGGAGAGAAGUGAACCAGAGAAACACACGUUGUGGUAUAUUACCUGGUA [U7G A24G]	0.697
GUCCUCGUUCACGUGCGCGUGAAAGUGAGAAGUGAACCAGAGAAACACACGUUGUGGUAUAUUACCUGGUA [U7G A26U]	0.384
GUCCUCGUUCACGUGCGCGUGAAAGAGCGAAGUGAACCAGAGAAACACACGUUGUGGUAUAUUACCUGGUA [U7G A28C]	0.329
GUCCUCGUUCACGUGCGCGUGAAAGAGGGAAGUGAACCAGAGAAACACACGUUGUGGUAUAUUACCUGGUA [U7G A28G]	1.06
GUCCUCGUUCACGUGCGCGUGAAAGAGAGGAGUGAACCAGAGAAACACACGUUGUGGUAUAUUACCUGGUA [U7G A30G]	0.081
GUCCUCGUUCACGUGCGCGUGAAAGAGAGACGUGAACCAGAGAAACACACGUUGUGGUAUAUUACCUGGUA [U7G A31C]	0.11
GUCCUCGUUCACGUGCGCGUGAAAGAGAGAAGUGAACCAGAGCAACACACGUUGUGGUAUAUUACCUGGUA [U7G A43C]	0.138
GUCCUCGUUCACGUGCGCGUGAAAGAGAGAAGUGAACCAGAGAUACACACGUUGUGGUAUAUUACCUGGUA [U7G A44U]	0.139
GUCCUCGUUCACGUGCGCGUGAAAGAGAGAAGUGAACCAGAGAAUCACACGUUGUGGUAUAUUACCUGGUA [U7G A45U]	0.2
GUCCUCGUUCACGUGCGCGUGAAAGAGAGAAGUGAACCAGAGAAACCCACGUUGUGGUAUAUUACCUGGUA [U7G A47C]	0.234
GUCCUCGUUCACGUGCGCGUGAAAGAGAGAAGUGAACCAGAGAAACUCACGUUGUGGUAUAUUACCUGGUA [U7G A47U]	0.0788
GUCCUCGUUCACGUGCGCGUGAAAGAGAGAAGUGAACCAGAGAAACACCCGUUGUGGUAUAUUACCUGGUA [U7G A49C]	0.141
GUCCUCGUUCACGUGCGCGUGAAAGAGAGAAGUGAACCAGAGAAACACUCGUUGUGGUAUAUUACCUGGUA [U7G A49U]	0.15

Variant	self-cleavage
GUCCUCGUUCACGUGCGCGUGAAAGAGAGAAGUGAACCAGAGAAACACACGUUGUGGUAUUUUACCUGGUA [U7G A61U]	0.203
GUCCUCGUUCACGUGCGCGUGAAAGAGAGAAGUGAACCAGAGAAACACACGUUGUGGUAUAUUGCCUGGUA [U7G A64G]	0.461
GUCCUCGUUCACGUGCGCGUGAAAGAGAGAAGUGAACCAGAGAAACACACGUUGUGGUAUAUUACCUGGUU [U7G A71U]	0.746
GUCCUCGUUAACGUGCGCGUGAAAGAGAGAAGUGAACCAGAGAAACACACGUUGUGGUAUAUUACCUGGUA [U7G C10A]	0.765
GUCCUCGUUGACGUGCGCGUGAAAGAGAGAAGUGAACCAGAGAAACACACGUUGUGGUAUAUUACCUGGUA [U7G C10G]	0.643
GUCCUCGUUUACGUGCGCGUGAAAGAGAGAAGUGAACCAGAGAAACACACGUUGUGGUAUAUUACCUGGUA [U7G C10U]	0.64
GUCCUCGUUCAGGUGCGCGUGAAAGAGAGAAGUGAACCAGAGAAACACACGUUGUGGUAUAUUACCUGGUA [U7G C12G]	0.658
GUCCUCGUUCACGUGAGCGUGAAAGAGAGAAGUGAACCAGAGAAACACACGUUGUGGUAUAUUACCUGGUA [U7G C16A]	0.929
GUCCUCGUUCACGUGCGCGUGAAAGAGAGAAGUGAAGCAGAGAAACACACGUUGUGGUAUAUUACCUGGUA [U7G C37G]	0.239
GUCCUCGUUCACGUGCGCGUGAAAGAGAGAAGUGAAUCAGAGAAACACACGUUGUGGUAUAUUACCUGGUA [U7G C37U]	0.531
GUCCUCGUUCACGUGCGCGUGAAAGAGAGAAGUGAACAAGAGAAACACACGUUGUGGUAUAUUACCUGGUA [U7G C38A]	0.129
GUCCUCGUUCACGUGCGCGUGAAAGAGAGAAGUGAACGAGAGAAACACACGUUGUGGUAUAUUACCUGGUA [U7G C38G]	0.0992
GUCCUCGUUCACGUGCGCGUGAAAGAGAGAAGUGAACCAGAGAAAUACACGUUGUGGUAUAUUACCUGGUA [U7G C46U]	0.129
GUCCUCGUUCACGUGCGCGUGAAAGAGAGAAGUGAACCAGAGAAACAUACGUUGUGGUAUAUUACCUGGUA [U7G C48U]	0.114
GUCCUCGUUCACGUGCGCGUGAAAGAGAGAAGUGAACCAGAGAAACACAGGUUGUGGUAUAUUACCUGGUA [U7G C50G]	0.143
GUCCUCGUUCACGUGCGCGUGAAAGAGAGAAGUGAACCAGAGAAACACACGUUGUGGUAUAUUAUCUGGUA [U7G C65U]	0.369
GUCCUCGUUCACGUGCGCGUGAAAGAGAGAAGUGAACCAGAGAAACACACGUUGUGGUAUAUUACUUGGUA [U7G C66U]	0.355
GUCCUCGUUCACCUGCGCGUGAAAGAGAGAAGUGAACCAGAGAAACACACGUUGUGGUAUAUUACCUGGUA [U7G G13C]	0.618
GUCCUCGUUCACGUACGCGUGAAAGAGAGAAGUGAACCAGAGAAACACACGUUGUGGUAUAUUACCUGGUA [U7G G15A]	0.736
GUCCUCGUUCACGUGCACGUGAAAGAGAGAAGUGAACCAGAGAAACACACGUUGUGGUAUAUUACCUGGUA [U7G G17A]	0.849
GUCCUCGUUCACGUGCCCGUGAAAGAGAGAAGUGAACCAGAGAAACACACGUUGUGGUAUAUUACCUGGUA [U7G G17C]	0.612
GUCCUCGUUCACGUGCUCGUGAAAGAGAGAAGUGAACCAGAGAAACACACGUUGUGGUAUAUUACCUGGUA [U7G G17U]	1.04
GUCCUCGUUCACGUGCGCUUGAAAGAGAGAAGUGAACCAGAGAAACACACGUUGUGGUAUAUUACCUGGUA [U7G G19U]	0.414
GUCCUCGUUCACGUGCGCGUGAAAAAGAGAAGUGAACCAGAGAAACACACGUUGUGGUAUAUUACCUGGUA [U7G G25A]	0.316
GUCCUCGUUCACGUGCGCGUGAAAGAGAAAAGUGAACCAGAGAAACACACGUUGUGGUAUAUUACCUGGUA [U7G G29A]	0.22
GUCCUCGUUCACGUGCGCGUGAAAGAGACAAGUGAACCAGAGAAACACACGUUGUGGUAUAUUACCUGGUA [U7G G29C]	0.134

Variant	self-cleavage
GUCCUCGUUCACGUGCGCGUGAAAGAGAGAAAUGAACCAGAGAAACACACGUUGUGGUAUAUUACCUGGUA [U7G G32A]	0.173
GUCCUCGUUCACGUGCGCGUGAAAGAGAGAAUUGAACCAGAGAAACACACGUUGUGGUAUAUUACCUGGUA [U7G G32U]	0.135
GUCCUCGUUCACGUGCGCGUGAAAGAGAGAAGUAAACCAGAGAAACACACGUUGUGGUAUAUUACCUGGUA [U7G G34A]	0.984
GUCCUCGUUCACGUGCGCGUGAAAGAGAGAAGUCAACCAGAGAAACACACGUUGUGGUAUAUUACCUGGUA [U7G G34C]	1.39
GUCCUCGUUCACGUGCGCGUGAAAGAGAGAAGUGAACCAGAUAAACACACGUUGUGGUAUAUUACCUGGUA [U7G G42U]	0.299
GUCCUCGUUCACGUGCGCGUGAAAGAGAGAAGUGAACCAGAGAAACACACUUUGUGGUAUAUUACCUGGUA [U7G G51U]	0.844
GUCCUCGUUCACGUGCGCGUGAAAGAGAGAAGUGAACCAGAGAAACACACGUUAUGGUAUAUUACCUGGUA [U7G G54A]	0.642
GUCCUCGUUCACGUGCGCGUGAAAGAGAGAAGUGAACCAGAGAAACACACGUUUUGGUAUAUUACCUGGUA [U7G G54U]	0.619
GUCCUCGUUCACGUGCGCGUGAAAGAGAGAAGUGAACCAGAGAAACACACGUUGUGCUAUAUUACCUGGUA [U7G G57C]	0.206
GUCCUCGUUCACGUGCGCGUGAAAGAGAGAAGUGAACCAGAGAAACACACGUUGUGGUAUAUUACCUUGUA [U7G G68U]	0.269
GUCCUCGGUCACGUGCGCGUGAAAGAGAGAAGUGAACCAGAGAAACACACGUUGUGGUAUAUUACCUGGUA [U7G U8G]	0.768
GUCCUCGUCCACGUGCGCGUGAAAGAGAGAAGUGAACCAGAGAAACACACGUUGUGGUAUAUUACCUGGUA [U7G U9C]	0.66
GUCCUCGUUCACGUGCGCGAGAAAGAGAGAAGUGAACCAGAGAAACACACGUUGUGGUAUAUUACCUGGUA [U7G U20A]	0.294
GUCCUCGUUCACGUGCGCGUGAAAGAGAGAAGUGAACCAGAGAAACACACGAUGUGGUAUAUUACCUGGUA [U7G U52A]	0.734
GUCCUCGUUCACGUGCGCGUGAAAGAGAGAAGUGAACCAGAGAAACACACGCUGUGGUAUAUUACCUGGUA [U7G U52C]	0.961
GUCCUCGUUCACGUGCGCGUGAAAGAGAGAAGUGAACCAGAGAAACACACGUUGUGGAAUAUUACCUGGUA [U7G U58A]	0.655
GUCCUCGUUCACGUGCGCGUGAAAGAGAGAAGUGAACCAGAGAAACACACGUUGUGGGAUAUUACCUGGUA [U7G U58G]	0.645
GUCCUCGUUCACGUGCGCGUGAAAGAGAGAAGUGAACCAGAGAAACACACGUUGUGGUAGAUUACCUGGUA [U7G U60G]	0.484
GUCCUCGUUCACGUGCGCGUGAAAGAGAGAAGUGAACCAGAGAAACACACGUUGUGGUAUAUAACCUGGUA [U7G U63A]	0.179
GUCCUCGUUCACGUGCGCGUGAAAGAGAGAAGUGAACCAGAGAAACACACGUUGUGGUAUAUGACCUGGUA [U7G U63G]	0.145
GUCCUCUAUCACGUGCGCGUGAAAGAGAGAAGUGAACCAGAGAAACACACGUUGUGGUAUAUUACCUGGUA [U8A]	0.745
GUCCUCUAUCCCGUGCGCGUGAAAGAGAGAAGUGAACCAGAGAAACACACGUUGUGGUAUAUUACCUGGUA [U8A A11C]	0.393
GUCCUCUAUCACGUGCGCGUGGAAGAGAGAAGUGAACCAGAGAAACACACGUUGUGGUAUAUUACCUGGUA [U8A A22G]	0.644
GUCCUCUAUCACGUGCGCGUGAAGGAGAGAAGUGAACCAGAGAAACACACGUUGUGGUAUAUUACCUGGUA [U8A A24G]	0.511
